Key:
Assay in all cases: co-sedimentation
[1] = biological target: P0mutII (P0 with I241Q/L248Q in helix II) (Bombyx mori)
[2] = biological target: Bombyx mori ribosomal protein P0 (full-length) (Bombyx mori)
[3] = biological target: P0mutI (P0 with F215Q/V222Q in helix I) (Bombyx mori)

Q: For P1–[32P]P2 heterodimer (complex), which stoichiometry N (copies of P2 per 50S particle) [1] is on record?
A: 1.14

Q: What about the stoichiometry N (copies of P2 per 50S particle) [2] of the same substance?
A: 2.22

Q: And the stoichiometry N (copies of P2 per 50S particle) [3]?
A: 1.04
